This is an account of results in PMC10464462.

The target of the assay is His-E-cadherin fusion protein (UniProt P12830). The experiment in a line: MST; RED-NHS-labelled His-E-cadherin at constant concentration (1 µM) with 2-fold serial dilutions of GST-KRT18 in MST-optimized buffer; 15 min at room temperature; Monolith NT.115; 20 and 40% MST power.
Chain of UniProt P12830 (P12830 155-882): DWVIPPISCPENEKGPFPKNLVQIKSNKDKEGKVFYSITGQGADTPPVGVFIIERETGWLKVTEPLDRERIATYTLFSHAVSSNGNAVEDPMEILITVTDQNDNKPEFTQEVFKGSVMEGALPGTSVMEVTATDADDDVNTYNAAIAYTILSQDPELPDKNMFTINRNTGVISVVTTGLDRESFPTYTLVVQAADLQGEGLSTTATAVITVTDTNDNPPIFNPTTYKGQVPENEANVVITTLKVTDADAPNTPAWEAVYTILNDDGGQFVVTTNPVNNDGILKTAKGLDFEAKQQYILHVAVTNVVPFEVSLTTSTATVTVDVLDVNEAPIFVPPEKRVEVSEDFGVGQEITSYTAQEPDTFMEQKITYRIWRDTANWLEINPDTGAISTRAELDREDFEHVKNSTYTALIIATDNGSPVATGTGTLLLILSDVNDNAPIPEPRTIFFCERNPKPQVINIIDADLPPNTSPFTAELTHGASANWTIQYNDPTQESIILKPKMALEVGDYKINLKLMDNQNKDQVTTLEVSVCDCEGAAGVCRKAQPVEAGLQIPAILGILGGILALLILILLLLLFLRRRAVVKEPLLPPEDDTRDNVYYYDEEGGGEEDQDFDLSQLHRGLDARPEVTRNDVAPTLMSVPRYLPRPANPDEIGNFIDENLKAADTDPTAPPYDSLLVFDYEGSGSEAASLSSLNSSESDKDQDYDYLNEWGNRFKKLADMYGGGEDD

B1: GST-KRT18 fusion protein (natural protein)
chain: MSFTTRSTFSTNYRSLGSVQAPSYGARPVSSAASVYAGAGGSGSRISVSRSTSFRGGMGSGGLATGIAGGLAGMGGIQNEKETMQSLNDRLASYLDRVRSLETENRRLESKIREHLEKKGPQVRDWSHYFKIIEDLRAQIFANTVDNARIVLQIDNARLAADDFRVKYETELAMRQSVENDIHGLRKVIDDTNITRLQLETEIEALKEELLFMKKNHEEEVKGLQAQIASSGLTVEVDAPKSQDLAKIMADIRAQYDELARKNREELDKYWSQQIEESTTVVTTQSAEVGAAETTLTELRRTVQSLEIDLDSMRNLKASLENSLREVEARYALQMEQLNGILLHLESELAQTRAEGQRQAQEYEALLNIKVKLEAEIATYRRLLEDGEDFNLGDALDSSNSMQTIQKTTTRRIVDGKVVSETNDTKVLRH
Consider B1, for which the Kd (as a rule, the constant that tells how readily two partners part at equilibrium) was 5.6 µM.
